In patent US20140087995A1 (published 2014) one finds IC50 data, which are given here for three molecules.

One may read the IC50 as the concentration needed to halve the response being measured.

Numbered stars: 1 amine (or outer) side, 2 acyl side, 3 side chain; on linkers, the order of the positions; unused ones are H or OH. Bridge positions count the residues as written; N and C are the ends. Side chains are listed from the residue outwards. Ends that are not written are not given here. * marks the point of attachment. C20 diacid = O=C(O)CCCCCCCCCCCCCCCCCCC(=O)*; γGlu = O=C(O)[C@H](CCC(=O)[*:2])N[*:1]

The experiment addresses T1, human amylin receptor (human, UniProt P30988 25-474; O60896 24-148, limits assumed).
T1 construct: whole, on cells; Calcitonin receptor plus RAMP-3 gives the amylin 3(a) receptor; membranes of Amylin 3(a)/CRE-luc cells were used; also called hAmylin-R; hAmylinR
T1 sequence (looked up) 1: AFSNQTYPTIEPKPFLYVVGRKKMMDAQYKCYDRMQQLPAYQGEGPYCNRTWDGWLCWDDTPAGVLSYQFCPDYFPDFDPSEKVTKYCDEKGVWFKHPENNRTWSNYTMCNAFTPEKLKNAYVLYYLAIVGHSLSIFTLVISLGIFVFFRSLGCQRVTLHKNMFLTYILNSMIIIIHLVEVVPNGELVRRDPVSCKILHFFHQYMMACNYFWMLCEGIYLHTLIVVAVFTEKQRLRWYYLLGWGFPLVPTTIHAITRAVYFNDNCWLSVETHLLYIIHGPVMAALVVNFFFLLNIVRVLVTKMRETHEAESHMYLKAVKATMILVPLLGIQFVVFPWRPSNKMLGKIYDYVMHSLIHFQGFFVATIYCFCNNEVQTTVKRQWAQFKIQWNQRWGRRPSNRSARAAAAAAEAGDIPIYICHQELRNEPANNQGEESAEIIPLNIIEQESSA
T1 sequence (looked up) 2: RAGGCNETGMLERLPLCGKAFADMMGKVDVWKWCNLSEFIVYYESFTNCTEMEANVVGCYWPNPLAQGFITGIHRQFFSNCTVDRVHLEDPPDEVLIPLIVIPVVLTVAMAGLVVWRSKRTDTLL
Description: SPA competition binding, displacement of 125I-rat amylin from membranes with human amylin 3(a) receptor (Assay V). The method, boiled down: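 Cell membranes were prepared by homogenisation in Na-HEPES/EDTA buffer, pH 7.4, and stored at −80° C. They were then coupled to SPA beads at 35 ng/μL final and exposed to compounds in assay buffer containing CaCl2, MgCl₂, OA and Tween20. After 120 min at 25° C, plates were counted and IC₅₀ derived.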
For orientation: In a radioligand displacement assay an active substance lowers the binding of a labelled ligand.

B1: N^ε1-[(4S)-4-carboxy-4-[[(4S)-4-carboxy-4-(19-carboxynonadecanoylamino)butanoyl]amino]butanoyl]-[Glu14,Arg17,Pro21,Pro27,Pro37]-h-amylin (peptide)
peptide: K([γGlu-γGlu-C20 diacid])CNTATCATQRLAEFLRHSSPNFGAIPSSTNVGSNTP-NH2
modifications: disulfide 2-7; N-terminus assumed
SMILES: CC[C@H](C)[C@H](NC(=O)[C@H](C)NC(=O)CNC(=O)[C@H](Cc1ccccc1)NC(=O)[C@H](CC(N)=O)NC(=O)[C@@H]1CCCN1C(=O)[C@H](CO)NC(=O)[C@H](CO)NC(=O)[C@H](Cc1c[nH]cn1)NC(=O)[C@H](CCCNC(=N)N)NC(=O)[C@H](CC(C)C)NC(=O)[C@H](Cc1ccccc1)NC(=O)[C@H](CCC(=O)O)NC(=O)[C@H](C)NC(=O)[C@H](CC(C)C)NC(=O)[C@H](CCCNC(=N)N)NC(=O)[C@H](CCC(N)=O)NC(=O)[C@@H](NC(=O)[C@H](C)NC(=O)[C@@H]1CSSC[C@H](NC(=O)[C@@H](N)CCCCNC(=O)CC[C@H](NC(=O)CC[C@H](NC(=O)CCCCCCCCCCCCCCCCCCC(=O)O)C(=O)O)C(=O)O)C(=O)N[C@@H](CC(N)=O)C(=O)N[C@@H]([C@@H](C)O)C(=O)N[C@@H](C)C(=O)N[C@@H]([C@@H](C)O)C(=O)N1)[C@@H](C)O)C(=O)N1CCC[C@H]1C(=O)N[C@@H](CO)C(=O)N[C@@H](CO)C(=O)N[C@H](C(=O)N[C@@H](CC(N)=O)C(=O)N[C@H](C(=O)NCC(=O)N[C@@H](CO)C(=O)N[C@@H](CC(N)=O)C(=O)N[C@H](C(=O)N1CCC[C@H]1C(N)=O)[C@@H](C)O)C(C)C)[C@@H](C)O
notes: also called 14E, 17R, 21P, 27P, 37P
As for B1, the IC50 was 264 pM.

B2: N^ε1-[(4S)-4-carboxy-4-[[(4S)-4-carboxy-4-(19-carboxynonadecanoylamino)butanoyl]amino]butanoyl]-[Glu14,Arg17,Pro21,Pro31,Pro34,Glu35]-h-amylin (peptide)
peptide: K([γGlu-γGlu-C20 diacid])CNTATCATQRLAEFLRHSSPNFGAILSSTPVGPETY-NH2
modifications: disulfide 2-7 (inferred)
notes: also called 14E, 17R, 21P, 31P, 34P, 35E
B2 showed a 50% inhibitory concentration (IC50) of 69 pM.

B3: N^ε1-[(4S)-4-carboxy-4-[[(4S)-4-carboxy-4-(19-carboxynonadecanoylamino)butanoyl]amino]butanoyl]-[His14,Arg17,Pro21,Pro27]-h-amylin (peptide)
peptide: K([γGlu-γGlu-C20 diacid])CNTATCATQRLAHFLRHSSPNFGAIPSSTNVGSNTY-NH2
modifications: disulfide 2-7; N-terminus assumed
SMILES: CC[C@H](C)[C@H](NC(=O)[C@H](C)NC(=O)CNC(=O)[C@H](Cc1ccccc1)NC(=O)[C@H](CC(N)=O)NC(=O)[C@@H]1CCCN1C(=O)[C@H](CO)NC(=O)[C@H](CO)NC(=O)[C@H](Cc1c[nH]cn1)NC(=O)[C@H](CCCNC(=N)N)NC(=O)[C@H](CC(C)C)NC(=O)[C@H](Cc1ccccc1)NC(=O)[C@H](Cc1c[nH]cn1)NC(=O)[C@H](C)NC(=O)[C@H](CC(C)C)NC(=O)[C@H](CCCNC(=N)N)NC(=O)[C@H](CCC(N)=O)NC(=O)[C@@H](NC(=O)[C@H](C)NC(=O)[C@@H]1CSSC[C@H](NC(=O)[C@@H](N)CCCCNC(=O)CC[C@H](NC(=O)CC[C@H](NC(=O)CCCCCCCCCCCCCCCCCCC(=O)O)C(=O)O)C(=O)O)C(=O)N[C@@H](CC(N)=O)C(=O)N[C@@H]([C@@H](C)O)C(=O)N[C@@H](C)C(=O)N[C@@H]([C@@H](C)O)C(=O)N1)[C@@H](C)O)C(=O)N1CCC[C@H]1C(=O)N[C@@H](CO)C(=O)N[C@@H](CO)C(=O)N[C@H](C(=O)N[C@@H](CC(N)=O)C(=O)N[C@H](C(=O)NCC(=O)N[C@@H](CO)C(=O)N[C@@H](CC(N)=O)C(=O)N[C@H](C(=O)N[C@@H](Cc1ccc(O)cc1)C(N)=O)[C@@H](C)O)C(C)C)[C@@H](C)O
notes: also called 14H, 17R, 21P, 27P
For B3, the IC50 came to 179 pM.
